The results in this text go back to paper doi:10.1101/2022.07.31.502239, “Structural basis for assembly and lipid-mediated gating of LRRC8A:C volume-regulated anion channels” (bioRxiv, 2022).

The data set deals with the molecule itself. As to the kind of experiment: single molecule pulldown with stepwise photobleaching subunit counting; C-terminal EGFP-HA fusion expressed alone in LRRC8 knockout HEK293 cells, GDN extract used directly, immobilised on passivated coverslips with biotinylated anti-HA, TIRF imaging of EGFP bleaching steps.

B1: HVCN1 with C-terminal EGFP and HA-tag (natural protein, UniProt Q96D96 1-273, looked up)
chain: MATWDEKAVTRRAKVAPAERMSKFLRHFTVVGDDYHAWNINYKKWENEEEEEEEEQPPPTPVSGEEGRAAAPDVAPAPGPAPRAPLDFRGMLRKLFSSHRFQVIIICLVVLDALLVLAELILDLKIIQPDKNNYAAMVFHYMSITILVFFMMEIIFKLFVFRLEFFHHKFEILDAVVVVVSFILDIVLLFQEHQFEALGLLILLRLWRVARIINGIIISVKTRSERQLLRLKQMNVQLAAKIQHLEFSCSEKEQEIERLNKLLRQHGLLGEVN
notes: HVCN1 (HV1) voltage-gated proton channel; Control for subunit counting; also called HV1-EGFP; HV1; source: LRRC8 knockout HEK293 cells, transfected, GDN detergent extract of membranes; not shown: EGFP, C-terminal, kept; HA, C-terminal, kept
The stoichiometry N is a count of units in the complex or per binding partner. B1: the “stoichiometry N” value is 2.
